Test results taken from the supplement of paper PMC9112550, “Optimization of the antimicrobial peptide Bac7 by deep mutational scanning” (BMC Biology, 2022).

These sequences were tested on Escherichia coli TOP10 (assay: shrunken log2 fold change of peptide-encoding DNA abundance (4.5 h post-induction vs induction); higher = less antimicrobial activity (less host growth inhibition)). Settings: time post-induction: 4.5 h; library: site-saturation at positions 5, 18, 19, 20.
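Note: peptides expressed intracellularly from a pBAD plasmid library in pooled LB shake-flask culture, induced with 0.3% L-arabinose, DNA abundance read by NGS, three biological replicates, DESeq2 with apeglm shrinkage.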

Sequence | shrunken log2 fold change
RRIRQRPPRLPRPRPRPRKFPRP | 0.214
RRIRQRPPRLPRPRPRPRKRPRP | -0.104
RRIRQRPPRLPRPRPRPRLFPRP | 0.701
RRIRQRPPRLPRPRPRPRLMPRP | 0.00478
RRIRQRPPRLPRPRPRPRLVPRP | 0.211
RRIRQRPPRLPRPRPRPRLYPRP | 0.0786
RRIRQRPPRLPRPRPRPRMGPRP | -0.0719
RRIRQRPPRLPRPRPRPRMHPRP | -0.0115
RRIRQRPPRLPRPRPRPRMQPRP | -0.0113
RRIRQRPPRLPRPRPRPRNRPRP | 0.0911
RRIRQRPPRLPRPRPRPRPDPRP | 0.191
RRIRQRPPRLPRPRPRPRQEPRP | 0.0978
RRIRQRPPRLPRPRPRPRQLPRP | 0.0166
RRIRQRPPRLPRPRPRPRQMPRP | 0.297
RRIRQRPPRLPRPRPRPRQNPRP | 0.402
RRIRQRPPRLPRPRPRPRQWPRP | 0.254
RRIRQRPPRLPRPRPRPRSWPRP | 0.681
RRIRQRPPRLPRPRPRPRTWPRP | -0.182
RRIRQRPPRLPRPRPRPRVPPRP | 0.339
RRIRQRPPRLPRPRPRPRWGPRP | 0.447
RRIRQRPPRLPRPRPRPSAHPRP | -0.075
RRIRQRPPRLPRPRPRPSANPRP | 0.0611
RRIRQRPPRLPRPRPRPSATPRP | 0.0854
RRIRQRPPRLPRPRPRPSDKPRP | -0.341
RRIRQRPPRLPRPRPRPSDSPRP | -0.0885

Sequence | shrunken log2 fold change
RRIRQRPPRLPRPRPRPSFIPRP | -0.807
RRIRQRPPRLPRPRPRPSHLPRP | 0.049
RRIRQRPPRLPRPRPRPSHQPRP | -0.0977
RRIRQRPPRLPRPRPRPSHSPRP | -0.102
RRIRQRPPRLPRPRPRPSHTPRP | -0.195
RRIRQRPPRLPRPRPRPSIDPRP | -0.607
RRIRQRPPRLPRPRPRPSKEPRP | -0.371
RRIRQRPPRLPRPRPRPSKGPRP | 0.0585
RRIRQRPPRLPRPRPRPSKYPRP | -0.0779
RRIRQRPPRLPRPRPRPSLFPRP | -0.11
RRIRQRPPRLPRPRPRPSLVPRP | -0.0806
RRIRQRPPRLPRPRPRPSMVPRP | -0.632
RRIRQRPPRLPRPRPRPSNNPRP | -0.729
RRIRQRPPRLPRPRPRPSNRPRP | -0.158
RRIRQRPPRLPRPRPRPSQGPRP | 4.77e-05
RRIRQRPPRLPRPRPRPSRIPRP | -0.305
RRIRQRPPRLPRPRPRPSSDPRP | -0.609
RRIRQRPPRLPRPRPRPSSTPRP | -0.215
RRIRQRPPRLPRPRPRPSVSPRP | -0.000735
RRIRQRPPRLPRPRPRPSWCPRP | -0.141
RRIRQRPPRLPRPRPRPSWDPRP | -0.16
RRIRQRPPRLPRPRPRPSWMPRP | -0.0569
RRIRQRPPRLPRPRPRPSWWPRP | -0.176
RRIRQRPPRLPRPRPRPSYNPRP | -0.723
RRIRQRPPRLPRPRPRPTCSPRP | -0.353

Sequence | shrunken log2 fold change
RRIRQRPPRLPRPRPRPTDNPRP | -0.335
RRIRQRPPRLPRPRPRPTEKPRP | -0.047
RRIRQRPPRLPRPRPRPTEQPRP | 0.0331
RRIRQRPPRLPRPRPRPTFKPRP | -0.225
RRIRQRPPRLPRPRPRPTGPPRP | 0.22
RRIRQRPPRLPRPRPRPTGVPRP | 0.216
RRIRQRPPRLPRPRPRPTHFPRP | -0.0245
RRIRQRPPRLPRPRPRPTHIPRP | -0.387
RRIRQRPPRLPRPRPRPTKDPRP | -0.198
RRIRQRPPRLPRPRPRPTKGPRP | -0.0785
RRIRQRPPRLPRPRPRPTLGPRP | 0.269
RRIRQRPPRLPRPRPRPTNGPRP | -0.0973
RRIRQRPPRLPRPRPRPTNKPRP | -0.579
RRIRQRPPRLPRPRPRPTPHPRP | 0.397
RRIRQRPPRLPRPRPRPTPNPRP | 0.333
RRIRQRPPRLPRPRPRPTPQPRP | 0.89
RRIRQRPPRLPRPRPRPTRHPRP | 0.434
RRIRQRPPRLPRPRPRPTSAPRP | 0.257
RRIRQRPPRLPRPRPRPTSLPRP | -0.0738
RRIRQRPPRLPRPRPRPTSNPRP | -0.64
RRIRQRPPRLPRPRPRPTVFPRP | -0.0987
RRIRQRPPRLPRPRPRPTVRPRP | 0.0397
RRIRQRPPRLPRPRPRPTWDPRP | 0.0355
RRIRQRPPRLPRPRPRPTWYPRP | -0.174
RRIRQRPPRLPRPRPRPTYIPRP | -0.0622

Sequence | shrunken log2 fold change
RRIRQRPPRLPRPRPRPVAAPRP | 0.51
RRIRQRPPRLPRPRPRPVACPRP | -0.0393
RRIRQRPPRLPRPRPRPVAEPRP | 0.478
RRIRQRPPRLPRPRPRPVAFPRP | -0.0706
RRIRQRPPRLPRPRPRPVAGPRP | 0.0467
RRIRQRPPRLPRPRPRPVAIPRP | -0.367
RRIRQRPPRLPRPRPRPVCMPRP | -0.0787
RRIRQRPPRLPRPRPRPVCWPRP | 0.279
RRIRQRPPRLPRPRPRPVHKPRP | 0.0383
RRIRQRPPRLPRPRPRPVKDPRP | -0.03
RRIRQRPPRLPRPRPRPVLNPRP | 2.89
RRIRQRPPRLPRPRPRPVMAPRP | -0.38
RRIRQRPPRLPRPRPRPVNHPRP | -0.212
RRIRQRPPRLPRPRPRPVNNPRP | -0.0612
RRIRQRPPRLPRPRPRPVPDPRP | 0.106
RRIRQRPPRLPRPRPRPVPLPRP | 0.0148
RRIRQRPPRLPRPRPRPVQEPRP | 0.00554
RRIRQRPPRLPRPRPRPVRAPRP | 0.38
RRIRQRPPRLPRPRPRPVSNPRP | -0.0478
RRIRQRPPRLPRPRPRPVWNPRP | -0.344
RRIRQRPPRLPRPRPRPVWQPRP | 0.232
RRIRQRPPRLPRPRPRPVYMPRP | -0.269
RRIRQRPPRLPRPRPRPVYNPRP | -0.0538
RRIRQRPPRLPRPRPRPWADPRP | 0.00911
RRIRQRPPRLPRPRPRPWCNPRP | -0.00865

Sequence | shrunken log2 fold change
RRIRQRPPRLPRPRPRPWCRPRP | -0.325
RRIRQRPPRLPRPRPRPWENPRP | 0.0728
RRIRQRPPRLPRPRPRPWEPPRP | 0.106
RRIRQRPPRLPRPRPRPWFGPRP | -0.352
RRIRQRPPRLPRPRPRPWGQPRP | 0.000222
RRIRQRPPRLPRPRPRPWHIPRP | -0.00133
RRIRQRPPRLPRPRPRPWKWPRP | -0.299
RRIRQRPPRLPRPRPRPWLWPRP | 0.145
RRIRQRPPRLPRPRPRPWNFPRP | -0.15
RRIRQRPPRLPRPRPRPWNGPRP | -0.0018
RRIRQRPPRLPRPRPRPWRSPRP | 0.0241
RRIRQRPPRLPRPRPRPWSCPRP | -0.462
RRIRQRPPRLPRPRPRPWSDPRP | -0.276
RRIRQRPPRLPRPRPRPWTIPRP | -0.142
RRIRQRPPRLPRPRPRPWTQPRP | 0.0496
RRIRQRPPRLPRPRPRPWTWPRP | -0.0328
RRIRQRPPRLPRPRPRPWVCPRP | -0.208
RRIRQRPPRLPRPRPRPWWVPRP | -0.0321
RRIRQRPPRLPRPRPRPYCFPRP | -1
RRIRQRPPRLPRPRPRPYDNPRP | -0.0495
RRIRQRPPRLPRPRPRPYDYPRP | -0.133
RRIRQRPPRLPRPRPRPYFLPRP | -0.923
RRIRQRPPRLPRPRPRPYGAPRP | -0.0876
RRIRQRPPRLPRPRPRPYHCPRP | -0.0107
RRIRQRPPRLPRPRPRPYIRPRP | -0.197

Sequence | shrunken log2 fold change
RRIRQRPPRLPRPRPRPYKPPRP | 0.0291
RRIRQRPPRLPRPRPRPYLCPRP | -0.00822
RRIRQRPPRLPRPRPRPYMRPRP | -0.0086
RRIRQRPPRLPRPRPRPYPTPRP | 0.0734
RRIRQRPPRLPRPRPRPYRYPRP | -0.0123
RRIRQRPPRLPRPRPRPYTCPRP | 0.0526
RRIRQRPPRLPRPRPRPYWSPRP | -0.117
RRIRQRPPRLPRPRPRPYWWPRP | -0.143
RRIRQRPPRLPRPRPRPYYKPRP | -0.962
RRIRRRPPRLPRPRPRPAALPRP | 0.55
RRIRRRPPRLPRPRPRPAANPRP | 3
RRIRRRPPRLPRPRPRPACRPRP | 0.456
RRIRRRPPRLPRPRPRPACYPRP | 0.488
RRIRRRPPRLPRPRPRPADDPRP | 0.213
RRIRRRPPRLPRPRPRPAEGPRP | -0.0943
RRIRRRPPRLPRPRPRPAEHPRP | 0.313
RRIRRRPPRLPRPRPRPAFMPRP | 0.169
RRIRRRPPRLPRPRPRPAGEPRP | 0.75
RRIRRRPPRLPRPRPRPAGGPRP | 0.327
RRIRRRPPRLPRPRPRPAGPPRP | 0.446
RRIRRRPPRLPRPRPRPAGQPRP | 1.41
RRIRRRPPRLPRPRPRPAKFPRP | 0.217
RRIRRRPPRLPRPRPRPALDPRP | 0.586
RRIRRRPPRLPRPRPRPAMWPRP | 0.451
RRIRRRPPRLPRPRPRPAPEPRP | 2.07
